Test results from US20090227507A1, “Angiotensin (1-7) Dosage Forms and Uses Thereof” (UNIVERSITY OF SOUTHERN CALIFORNIA, priority 2008, published 2009).

Test: Hematology profile (CBC with differential, platelet count) in healthy men;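 on Platelet Count, Median Change from Baseline: Thousands of platelets per mm³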;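 on Platelet Count, Median: Thousands of platelets per mm³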
Type: in vivo, human
Details: for number of various white blood cell types in peripheral blood above baseline levels: human administration
Protocol: Pharmacological Effect: The following evaluations (under efficacy and safety in the protocol) were performed: • Effects on the number of mature blood cells: • 1. CBC (with differential), platelet count, reticulocyte count. • Effects on early hematopoietic progenitor cells and mature lymphocyte subsets in the periphery: • 1. Flow cytometry to evaluate frequency of peripheral blood progenitor cells (eg, CD34^+) and lymphocyte subsets (eg, CD3, CD4, CD8) in peripheral blood. • 2. Collection of blood for later possible culture for progenitor cells (eg, colony forming units-granulocyte/macrophage [CFU-GM]) to evaluate potential effects on CD34^+ hematopoietic progenitor cells in peripheral blood. • 3.
The effect of USB003 on the number of mature blood cells was assessed by the complete blood count with differential, platelet and reticulocyte counts. The effects on early hematopoietic progenitor cells and mature lymphocyte subsets in the periphery were assessed by flow cytometry. In addition, blood was collected and processed to enable culture of progenitors at a later time.
Red blood cell (RBC) count, RBC indices, white blood cell count (WBC) with differential, reticulocyte count, platelet count, hemoglobin (Hb), hematocrit (Hct), plasma hemoglobin, peripheral flow cytometry, including CD34^+, flow cytometry for enumeration of CD3, CD4, and CD8 lymphocytes, and culture for progenitor cells in peripheral blood including colony-forming units-granulocyte/macrophage (CFU-GM).

[1] = 300 μg/kg, N = 8, baseline to Day 8
[2] = 300 μg/kg, N = 8, baseline to Day 20
[3] = 300 μg/kg, Study Termination Visit Day 19
[4] = 300 μg/kg, repeat test 10 days later
[5] = Subject 042, 300 μg/kg, Day 29 U (unscheduled)

## Asp-Arg-Val-Tyr-Ile-His-Pro [USB003]
[1]
  Eosinophils shift L-N, number of subjects: — (“—” = 0)
  Eosinophils shift N-H, number of subjects: — (“—” = 0)
  Eosinophils shift N-L, number of subjects: — (“—” = 0)
  Hematocrit shift H-N, number of subjects: — (“—” = 0)
  Hematocrit shift L-N, number of subjects: — (“—” = 0)
  Hematocrit shift N-H, number of subjects: — (“—” = 0)
  Hematocrit shift N-L, number of subjects: 2
  Hemoglobin shift H-N, number of subjects: — (“—” = 0)
  Hemoglobin shift L-N, number of subjects: — (“—” = 0)
  Hemoglobin shift N-H, number of subjects: — (“—” = 0)
  Hemoglobin shift N-L, number of subjects: 2
  Lymphocytes shift H-N, number of subjects: — (“—” = 0)
  Lymphocytes shift L-N, number of subjects: — (“—” = 0)
  Lymphocytes shift N-H, number of subjects: — (“—” = 0)
  Lymphocytes shift N-L, number of subjects: — (“—” = 0)
  Plasma Hemoglobin shift H-N, number of subjects: — (“—” = 0)
  Plasma Hemoglobin shift L-N, number of subjects: — (“—” = 0)
  Plasma Hemoglobin shift N-H, number of subjects: — (“—” = 0)
  Plasma Hemoglobin shift N-L, number of subjects: — (“—” = 0)
  Platelet Count shift H-N, number of subjects: — (“—” = 0)
  Platelet Count shift L-N, number of subjects: 1
  Platelet Count shift N-H, number of subjects: — (“—” = 0)
  Platelet Count shift N-L, number of subjects: — (“—” = 0)
  RBC shift H-N, number of subjects: — (“—” = 0)
  RBC shift L-N, number of subjects: — (“—” = 0)
  RBC shift N-H, number of subjects: — (“—” = 0)
  RBC shift N-L, number of subjects: 1
  Segmented Neutrophils shift H-N, number of subjects: — (“—” = 0)
  Segmented Neutrophils shift L-N, number of subjects: — (“—” = 0)
  Segmented Neutrophils shift N-H, number of subjects: — (“—” = 0)
  Segmented Neutrophils shift N-L, number of subjects: — (“—” = 0)
[2]
  Absolute Eosinophils shift H-N, number of subjects: — (“—” = 0)
  Absolute Eosinophils shift L-N, number of subjects: — (“—” = 0)
  Absolute Eosinophils shift N-H, number of subjects: — (“—” = 0)
  Absolute Eosinophils shift N-L, number of subjects: — (“—” = 0)
  Absolute Neutrophils shift H-N, number of subjects: — (“—” = 0)
  Absolute Neutrophils shift L-N, number of subjects: — (“—” = 0)
  Absolute Neutrophils shift N-H, number of subjects: 1
  Absolute Neutrophils shift N-L, number of subjects: — (“—” = 0)
  Absolute Reticulocytes shift H-N, number of subjects: — (“—” = 0)
  Absolute Reticulocytes shift L-N, number of subjects: — (“—” = 0)
  Absolute Reticulocytes shift N-H, number of subjects: — (“—” = 0)
  Absolute Reticulocytes shift N-L, number of subjects: — (“—” = 0)
  Eosinophils shift H-N, number of subjects: 1
  Eosinophils shift L-N, number of subjects: — (“—” = 0)
  Eosinophils shift N-H, number of subjects: 2
  Eosinophils shift N-L, number of subjects: — (“—” = 0)
  Hematocrit shift H-N, number of subjects: — (“—” = 0)
  Hematocrit shift L-N, number of subjects: — (“—” = 0)
  Hematocrit shift N-H, number of subjects: — (“—” = 0)
  Hematocrit shift N-L, number of subjects: 4
  Hemoglobin shift H-N, number of subjects: — (“—” = 0)
  Hemoglobin shift L-N, number of subjects: — (“—” = 0)
  Hemoglobin shift N-H, number of subjects: — (“—” = 0)
  Hemoglobin shift N-L, number of subjects: 3
  Lymphocytes shift H-N, number of subjects: 1
  Lymphocytes shift L-N, number of subjects: — (“—” = 0)
  Lymphocytes shift N-H, number of subjects: — (“—” = 0)
  Lymphocytes shift N-L, number of subjects: — (“—” = 0)
  Monocytes shift H-N, number of subjects: — (“—” = 0)
  Monocytes shift L-N, number of subjects: — (“—” = 0)
  Monocytes shift N-H, number of subjects: — (“—” = 0)
  Monocytes shift N-L, number of subjects: — (“—” = 0)
  Plasma Hemoglobin shift H-N, number of subjects: — (“—” = 0)
  Plasma Hemoglobin shift L-N, number of subjects: — (“—” = 0)
  Plasma Hemoglobin shift N-H, number of subjects: 1
  Plasma Hemoglobin shift N-L, number of subjects: — (“—” = 0)
  Platelet Count shift H-N, number of subjects: — (“—” = 0)
  Platelet Count shift L-N, number of subjects: 1
  Platelet Count shift N-H, number of subjects: — (“—” = 0)
  Platelet Count shift N-L, number of subjects: — (“—” = 0)
  RBC shift H-N, number of subjects: — (“—” = 0)
  RBC shift L-N, number of subjects: — (“—” = 0)
  RBC shift N-H, number of subjects: — (“—” = 0)
  RBC shift N-L, number of subjects: 2
  RDW shift H-N, number of subjects: — (“—” = 0)
  RDW shift L-N, number of subjects: — (“—” = 0)
  RDW shift N-H, number of subjects: — (“—” = 0)
  RDW shift N-L, number of subjects: — (“—” = 0)
  Segmented Neutrophils shift H-N, number of subjects: — (“—” = 0)
  Segmented Neutrophils shift L-N, number of subjects: — (“—” = 0)
  Segmented Neutrophils shift N-H, number of subjects: 2
  Segmented Neutrophils shift N-L, number of subjects: — (“—” = 0)
  WBC shift H-N, number of subjects: — (“—” = 0)
  WBC shift L-N, number of subjects: — (“—” = 0)
  WBC shift N-H, number of subjects: 1
  WBC shift N-L, number of subjects: — (“—” = 0)
300 μg/kg, Baseline
  Absolute Neutrophils, Median: 2.85 thousands/mm^3
  Hematocrit, Median: 45.25%
  Hemoglobin, Median: 15.60 g/dL
  Lymphocytes, Median: 33.60%
  Platelet Count, Median: 216.0 thousands/mm^3
  WBC, Median: 5.15 thousands/mm^3
300 μg/kg, Day 8
  Absolute Neutrophils, Median: 2.95 thousands/mm^3
  Absolute Neutrophils, Median Change from Baseline: −0.10 thousands/mm^3
  Hematocrit, Median: 42.30%
  Hematocrit, Median Change from Baseline: −2.10%
  Hemoglobin, Median: 14.40 g/dL
  Hemoglobin, Median Change from Baseline: -1.15 g/dL
  Lymphocytes, Median: 34.50%
  Lymphocytes, Median Change from Baseline: 1.00%
  Platelet Count, Median: 243.0 thousands/mm^3
  Platelet Count, Median Change from Baseline: 22.5 thousands/mm^3
  WBC, Median: 5.65 thousands/mm^3
  WBC, Median Change from Baseline: −0.30 thousands/mm^3
300 μg/kg, Day 20
  Absolute Neutrophils, Median: 3.80 thousands/mm^3
  Absolute Neutrophils, Median Change from Baseline: 0.75 thousands/mm^3
  Hematocrit, Median: 40.45%
  Hematocrit, Median Change from Baseline: −3.45%
  Hemoglobin, Median: 14.0 g/dL
  Hemoglobin, Median Change from Baseline: -1.30 g/dL
  Lymphocytes, Median: 29.75%
  Lymphocytes, Median Change from Baseline: −3.90%
  Platelet Count, Median: 243.5 thousands/mm^3
  Platelet Count, Median Change from Baseline: 14 thousands/mm^3
  WBC, Median: 6.55 thousands/mm^3
  WBC, Median Change from Baseline: 1.30 thousands/mm^3
[3]
  WBC value, Subject 042: 13,400 cells/mm^3
  segmented neutrophils, Subject 042: 84.9%
[4]
  WBC count, Subject 042: 8,900 cells/mm^3
  segmented neutrophils, Subject 042: 73.5%
200 and 300 μg/kg SC
  total WBC and neutrophil concentrations: increases
Subject 027, 200 μg/kg, Day 11
  WBC Significance: CS AE
  WBC Value: 12.7 10^3/mm³
Subject 027, 200 μg/kg, Day 14
  WBC High/Low Normal/Abnormal: N
  WBC Value: 7.3 10^3/mm³
Subject 042, 300 μg/kg, Day 19
  Segmented Neutrophils Significance: CS AE
  Segmented Neutrophils Value: 84.9%
  WBC Significance: CS AE
  WBC Value: 13.4 10^3/mm³
[5]
  Segmented Neutrophils Significance: NCS
  Segmented Neutrophils Value: 73.5%
  WBC High/Low Normal/Abnormal: N
  WBC Value: 8.9 10^3/mm³
During the administration of USB003
  peripheral blood concentrations of WBC, neutrophils, CD3, CD34+, CD4 and CD8: elevations
Following discontinuation of USB003 administration
  time for all hematological parameters to return to baseline: ≤ 12 days
Doses of 300 μg/kg or more
  number of various white blood cell types in peripheral blood above baseline levels: increasing the number of various white blood cell types
Lower doses (200 μg/kg)
  number of various white blood cell types in peripheral blood above baseline levels: did not provide such an increase over baseline
